Experiment: SEC

## CD95L-IZ-His (His8-TEV-Cys-IZ-CD95L (137-281), secreted form)
  percent trimers in solution (Gaussian fit of the SEC curve): occurs in a trimeric state (i.e. 62%)
